Data: US20190300618A1 (Merck Sharp & Dohme, published 2019)
Where a chain is given by its changes, count along the chain named.

Assays:
Assay in all cases: flow cytometry, CHO-K1; single column;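 note: CHO-K1 cells transiently transfected with hCD27 alanine mutant constructs, anti-hCD27 antibody binding measured by flow cytometry, 30 min at 4 °C, wild-type hCD27 binding taken as 100%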
K31A = target: T1, K31A
T1 construct: also called hCD27 K31A
T1 receptor: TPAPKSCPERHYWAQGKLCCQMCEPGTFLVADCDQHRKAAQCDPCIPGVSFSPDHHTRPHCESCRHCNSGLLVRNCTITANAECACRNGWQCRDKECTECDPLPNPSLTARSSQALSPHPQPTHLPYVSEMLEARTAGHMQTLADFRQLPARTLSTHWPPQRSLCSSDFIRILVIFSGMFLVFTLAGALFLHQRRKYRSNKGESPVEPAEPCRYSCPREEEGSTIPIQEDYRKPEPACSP
Protocol: (§1) The ability of several anti-hCD27 antibodies to bind to a series of hCD27 alanine mutants was determined using CHO-K1 cells, transiently transfected pCI-neo empty vector, pCI-neo.hCD27 and several pCI-neo.CD27Ala mutant constructs.
(§2) Detached cells were transferred to 96 wells round-bottomed well plates at approximately 1.2×10⁵ cells/well. After spinning down the cells, discarding the supernatants and re-suspending the cells in the residual volume, the primary antibodies were added and incubated for 30 minutes at 4° C. Cells were washed three times with DPBS/BSA 1%, followed by centrifugation, discarding of the supernatants and re-suspension in the residual volume. […] After washing once, antibody binding was detected using the HTS plate reader (FACS Canto II) and FlowJo software for data analysis. Debris, dead cells and doublets were excluded from the analysis. Binding was expressed as the geometric mean of the FITC signal, relative to antibody binding to hCD27, which was set at 100%.

E9A = target: T2, E9A
T2 construct: also called hCD27 E9A
T2 receptor: T1 receptor with E9A, A31K
Protocol: as §1, §2

R87A = target: T3, R87A
T3 construct: also called hCD27 R87A
T3 receptor: T1 receptor with A31K, R87A
Protocol: as §1, §2

H60A = target: T4, H60A
T4 construct: also called hCD27 H60A
T4 receptor: T1 receptor with A31K, H60A
Protocol: as §1, §2

Q41A = target: T5, Q41A
T5 construct: also called hCD27 Q41A
T5 receptor: T1 receptor with A31K, Q41A
Protocol: as §1, §2

R93A = target: T6, R93A
T6 construct: also called hCD27 R93A
T6 receptor: T1 receptor with A31K, R93A
Protocol: as §1, §2

V30A = target: T7, V30A
T7 construct: also called hCD27 V30A
T7 receptor: T1 receptor with V30A, A31K
Protocol: as §1, §2

W90A = target: T8, W90A
T8 construct: also called hCD27 W90A
T8 receptor: T1 receptor with A31K, W90A
Protocol: as §1, §2

W13A = target: T9, W13A
T9 construct: also called hCD27 W13A
T9 receptor: T1 receptor with W13A, A31K
Protocol: as §1, §2

S63A = target: T10, S63A
T10 construct: also called hCD27 S63A
T10 receptor: T1 receptor with A31K, S63A
Protocol: as §1, §2

% of WT hCD27 binding (geo mean FITC) (K31A): 30.3%
% of WT hCD27 binding (geo mean FITC) (E9A): 58.5%
% of WT hCD27 binding (geo mean FITC) (R87A): 114%
% of WT hCD27 binding (geo mean FITC) (H60A): 82.6%
% of WT hCD27 binding (geo mean FITC) (Q41A): 33.9%
% of WT hCD27 binding (geo mean FITC) (R93A): 131%
% of WT hCD27 binding (geo mean FITC) (V30A): 82.6%
% of WT hCD27 binding (geo mean FITC) (W90A): 93.8%
% of WT hCD27 binding (geo mean FITC) (W13A): 71.4%
% of WT hCD27 binding (geo mean FITC) (S63A): 104%
B1: hCD27.15-6B (humanized hCD27.15, human IgG4, Clone 6B) (antibody, V domains shown)
VH: QVQLVQSGAEVKKPGASVKVSCKASGFIIKATYMHWVRQAPGQRLEWMGRIDPANGETKYDPKFQVRVTITADTSASTAYMELSSLRSEDTAVYYCARYAWYFDVWGQGTLVTVSS
VL: DIQMTQSPSSLSASVGDRVTITCRASENIYSFLAWYQQKPGKAPKLLIYHAKTLAEGVTSRFSGSGSGTDFTLTISSLQPEDSATYYCQHYYGSPLTFGQGTRLEIKR
notes: humanized version of hCD27.15 from WO2012/004367 with identical CDR regions; also called hCD27.15 (humanized 6B); hCD27.15 6B humanized antibody
